Experimental data as given in patent publication US20240317834A1, “COMPOSITIONS AND METHODS FOR NEUROLOGICAL DISEASES” (CODA BIOTHERAPEUTICS, INC., priority 2020, published 2024).

Key:
[1] = tested on: rat DRG neurons; test: Rheobase shift and evoked action potentials in rat DRG neurons (current clamp); type: cell-based
In short: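 Rat DRG neurons expressing engineered receptors, whole-cell current clamp at RT. ECS at pH 7.3; K-gluconate internal at pH 7.2. 500 ms steps from −200 to 700 pA with and without ligand. Rheobase taken as the smallest depolarising step that fires an action potential; input resistance from negative steps.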

[2] = tested on: Lenti-X 293T cells; test: YFP fluorescence quenching anion reporter plate reader assay of engineered receptors stimulated with acetylcholine or a non-native ligand; type: cell-based
In short: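 YFP quench was followed for about 1 min 43 s after ligand delivered in iodide-based ECS, pH 7.2. Values are end-of-read fluorescence (last 10 s) divided by the pre-ligand baseline (15 s). Cells were LX293T, transfected with receptor DNA a day before the assay.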

B1: CODA1055: engineered chimeric LGIC receptor, R101W, Y115E, Y210W in SEQ ID NO: 33 (protein)
chain: MRCSPGGVWLALAASLLHVSLQGEFQRKLYKELVKNYNPLERPVANDSQPLTVYFSLSLLQIMDVDEKNQVLTTNIWLQMSWTDHYLQWNVSEYPGVKTVWFPDGQIWKPDILLENSADERFDATFHTNVLVNSSGHCQYLPPGIFKSSCPMDLKNFPMDVQTCKLKFGSWSYGGWSLDLQMQEADISGYIPNGEWDLVGIPGKRSERFWECCKEPYPDVTFTVTMRRRMGYYLIQMYIPSLLIVILSWISFWINMDAAPARVGLGITTVLTMTTQSSGSRASLPKVSYVKAIDIWMAVCLLFVFSALLEYAAVNFVSRQHKELLRFRRKRRHHKSPMLNLFQEDEAGEGRFNFSAYGMGPACLQAKDGISVKGANNSNTTNPPPAPSKSPEEMRKLFIQRAKKIDKISRIGFPMAFLIFNMFYWIIYKIVRREDVHNQ
modifications: synthetic sequence of chimeric LGIC
- Rheobase Shift; Rat DRG Neurons, +TC-5619 @ EC90 ([1]; +TC-5619 @ EC90): 562 ± 35 pA
- Rheobase Shift; Rat DRG Neurons, Baseline ([1]; Baseline, no ligand): 83 ± 7 pA
- YFP fluorescence quenching using CNL001 ([2]; 1 nM CNL001, first column): −12.889%
- YFP fluorescence quenching using CNL001 ([2]; 1 nM CNL001, second column): −13.295%
- YFP fluorescence quenching using TC-5619/Bradanicline ([2]; 1 nM brd): −8.113%
- YFP fluorescence quenching using TC-5619/Bradanicline ([2]; 3 nM brd): −11.136%
- YFP fluorescence quenching using Varenicline ([2]; 3 nM var, first column): 0.468
- YFP fluorescence quenching using Varenicline ([2]; 3 nM var, second column): −10.015
- YFP fluorescence quenching using CNL001 ([2]; 10 nM CNL001, first column): −10.401%
- YFP fluorescence quenching using CNL001 ([2]; 10 nM CNL001, second column): −7.981%
- YFP fluorescence quenching using TC-5619/Bradanicline ([2]; 10 nM brd): 38.755%
- YFP fluorescence quenching using TC-5619/Bradanicline ([2]; 30 nM brd): 39.111%
- YFP fluorescence quenching using Varenicline ([2]; 30 nM var, first column): −15.532
- YFP fluorescence quenching using Varenicline ([2]; 30 nM var, second column): −14.462
- YFP fluorescence quenching using CNL001 ([2]; 50 nM CNL001, first column): −1.972%
- YFP fluorescence quenching using CNL001 ([2]; 50 nM CNL001, second column): −1.661%
- YFP fluorescence quenching using ABT-126 ([2]; 50 nM abt): −21.36%
- YFP fluorescence quenching using CNL001 ([2]; 100 nM CNL001, first column): 0.277%
- YFP fluorescence quenching using CNL001 ([2]; 100 nM CNL001, second column): 4.325%
- YFP fluorescence quenching using ABT-126 ([2]; 100 nM abt): −22.28%
- YFP fluorescence quenching using TC-5619/Bradanicline ([2]; 100 nM brd): 61.378%
- YFP fluorescence quenching using ABT-126 ([2]; 300 nM abt): −14.63%
- YFP fluorescence quenching using TC-5619/Bradanicline ([2]; 300 nM brd): 52.398%
- YFP fluorescence quenching using Varenicline ([2]; 300 nM var, first column): −17.027
- YFP fluorescence quenching using Varenicline ([2]; 300 nM var, second column): −15.59
- YFP fluorescence quenching using Varenicline ([2]; 500 nM var, first column): −13.343
- YFP fluorescence quenching using Varenicline ([2]; 500 nM var, second column): −10.702
- YFP fluorescence quenching using CNL001 ([2]; 1 uM CNL001, first column): 2.88%
- YFP fluorescence quenching using CNL001 ([2]; 1 uM CNL001, second column): 3.259%
- YFP fluorescence quenching using ABT-126 ([2]; 1 uM abt): −7.34%
- YFP fluorescence quenching using Varenicline ([2]; 1 uM var, first column): −6.604
- YFP fluorescence quenching using Varenicline ([2]; 1 uM var, second column): −7.612
- percent quench of YFP fluorescence, 30 nM TC-6683 ([2]; TC-6683 30 nM): −30.056%
- percent quench of YFP fluorescence, 300 nM TC-6683 ([2]; TC-6683 300 nM): −30.801%
- percent quench of YFP fluorescence, 3 uM TC-6683 ([2]; TC-6683 3 uM): −25.558%
- percent quench of YFP fluorescence, 30 uM TC-6683 ([2]; TC-6683 30 uM): −18.295%
- percent quench of YFP fluorescence, 100 uM TC-6683 ([2]; TC-6683 100 uM): −17.554%
- percent quench of YFP fluorescence, 100 uM ach ([2]; acetylcholine 100 uM): −15.63%
- percent quench of YFP fluorescence, 300 uM ach ([2]; acetylcholine 300 uM): −12.05%
- percent quench of YFP fluorescence, 500 uM ach ([2]; acetylcholine 500 uM): −12.87%
- percent quench of YFP fluorescence, 1 mM ach ([2]; acetylcholine 1 mM): −11.55%
- percent quench of YFP fluorescence, 3 mM ach ([2]; acetylcholine 3 mM): 12.68%
- percent quench of YFP fluorescence, 10 mM ach ([2]; acetylcholine 10 mM): 37.58%
